Read-outs that look alike come from different tables or passages of the source.
Key:
[1] = biological target: human TrkB on CHO cells (CHO-K1-hTrkB/pSRE-Luc) (human) (UniProt Q16620); experiment: cell-based or functional assay
[2] = biological target: human TrkB on CHO cells (CHO-K1-hTrkB/pSRE-Luc) (human) (UniProt Q16620); experiment: cell-based or functional assay; remark: listed apart in the source

Sequence of human TrkB on CHO cells (CHO-K1-hTrkB/pSRE-Luc) (human) (Q16620 32-822): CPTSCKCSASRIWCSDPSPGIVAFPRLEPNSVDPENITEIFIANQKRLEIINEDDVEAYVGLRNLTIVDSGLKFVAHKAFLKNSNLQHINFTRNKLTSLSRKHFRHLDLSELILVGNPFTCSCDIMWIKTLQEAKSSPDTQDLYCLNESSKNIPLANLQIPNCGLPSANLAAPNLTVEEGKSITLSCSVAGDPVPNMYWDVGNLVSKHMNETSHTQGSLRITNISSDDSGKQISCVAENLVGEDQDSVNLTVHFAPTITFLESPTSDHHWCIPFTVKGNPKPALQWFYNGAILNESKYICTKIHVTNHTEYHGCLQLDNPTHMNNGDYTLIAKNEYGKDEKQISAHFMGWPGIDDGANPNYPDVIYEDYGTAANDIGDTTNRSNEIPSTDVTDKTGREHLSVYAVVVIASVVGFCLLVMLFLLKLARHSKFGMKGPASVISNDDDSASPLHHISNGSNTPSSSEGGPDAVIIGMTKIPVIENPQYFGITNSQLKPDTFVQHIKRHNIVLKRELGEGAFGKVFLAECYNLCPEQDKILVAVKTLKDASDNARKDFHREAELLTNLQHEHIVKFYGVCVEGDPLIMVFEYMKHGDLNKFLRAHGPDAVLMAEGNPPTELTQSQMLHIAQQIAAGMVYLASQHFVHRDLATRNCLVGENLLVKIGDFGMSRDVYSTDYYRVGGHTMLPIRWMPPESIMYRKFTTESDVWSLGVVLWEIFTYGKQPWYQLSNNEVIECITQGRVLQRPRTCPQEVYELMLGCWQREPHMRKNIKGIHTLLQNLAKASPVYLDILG

B1: pre-pro-BDNF(-RGR)-T7-His6 (ligand)
chain: HSDPARRGELSVCDSISEWVTAADKKTAVDMSGGTVTVLEKVPVSKGQLKQYFYETKCNPMGYTKEGCRGIDKRHWNSQCRTTQSYVRALTMDSKKRIGWRFIRIDTSCVCTLTIKGSGMASMTGGQQMGHHHHHH
BDNF activity in TrkBluciferase assay, EC50 [% or nM] [1]: 100%
BDNF activity in TrkBluciferase assay, EC50 [nM] [1]: 3.4 nM
relative BDNF activity in TrkB luciferase assay, EC50 [%] [1]: 100%
BDNF activity in TrkBluciferase assay, EC50 [nM] [2]: 3 nM
